Laboratory results taken from PMC1184061.

How the values were obtained:
[1] = target: T1, zif268 DBD R18D (DE) (UniProt P08046 331-420, R349D); assay: EMSA (Scatchard); 30 mM Tris-HCl pH 8.0, 50 mM NaCl, 0.1 mg/ml BSA, 3 mM DTT, 20 uM ZnSO4, 5 ug/ml poly(dI-dC), 1 h on ice; 10% polyacrylamide gel
[2] = target: T2, zif268 DBD E21N (RN) (UniProt P08046 331-420, E352N); assay: as above
[3] = target: T3, zif268 DBD R18Q (QE) (UniProt P08046 331-420, R349Q); assay: as above
[4] = target: T4, zif268 DBD wild type (RE) (UniProt P08046 331-420); assay: as above
[5] = target: T1, zif268 DBD R18D (DE); assay: competition EMSA (QuMFRA); 30 mM Tris-HCl pH 8.0, 50 mM NaCl, 0.1 mg/ml BSA, 3 mM DTT, 20 uM ZnSO4, 5 ug/ml poly(dI-dC), 1 h on ice; 10% polyacrylamide gel
[6] = target: T2, zif268 DBD E21N (RN); assay: as above
[7] = target: T3, zif268 DBD R18Q (QE); assay: as above
[8] = target: T5, zif268 DBD R18Q/E21N (QN) (UniProt P08046 331-420, R349Q;E352N); assay: as above
[9] = target: T6, zif268 DBD R18D/E21N (DN) (UniProt P08046 331-420, R349D;E352N); assay: as above
[10] = target: T4, zif268 DBD wild type (RE); assay: as above
[11] = target: T5, zif268 DBD R18Q/E21N (QN); assay: EMSA (Scatchard x QuMFRA); derived; 30 mM Tris-HCl pH 8.0, 50 mM NaCl, 0.1 mg/ml BSA, 3 mM DTT, 20 uM ZnSO4, 5 ug/ml poly(dI-dC), 1 h on ice; 10% polyacrylamide gel
[12] = target: T6, zif268 DBD R18D/E21N (DN); assay: as above
[13] = target: T1, zif268 DBD R18D (DE); assay: as above
[14] = target: T2, zif268 DBD E21N (RN); assay: as above
[15] = target: T3, zif268 DBD R18Q (QE); assay: as above
[16] = target: T4, zif268 DBD wild type (RE); assay: as above
[17] = target: T5, zif268 DBD R18Q/E21N (QN); assay: EMSA (Scatchard); 30 mM Tris-HCl pH 8.0, 50 mM NaCl, 0.1 mg/ml BSA, 3 mM DTT, 20 uM ZnSO4, 5 ug/ml poly(dI-dC), 1 h on ice; 10% polyacrylamide gel
[18] = target: T6, zif268 DBD R18D/E21N (DN); assay: as above

Row | Binder | Ka [1] | Ka [2] | Ka [3] | Ka [4] | binding signal [5] | binding signal [6] | binding signal [7] | binding signal [8] | binding signal [9] | binding signal [10] | Ka [11] | Ka [12] | Ka [13] | Ka [14] | Ka [15] | Ka [16] | Ka [17] | Ka [18]
1 | Zif_3 (CC) (dsDNA) DNA 1: TCGAGGTCGACGGTATCGCGTGGGCCCTCCACTAGTTCTAGAGCGGCCGCCAC DNA 2: GTGGCGGCCGCTCTAGAACTAGTGGAGGGCCCACGCGATACCGTCGACCTCGA | 4.7 10^6 M-1 | 33 10^6 M-1 | 6.4 10^6 M-1 | 33 10^6 M-1 | 1.91 Ka relative to CG | 0.41 Ka relative to CG | 2.17 Ka relative to CG | 0.53 Ka relative to CG | 2.61 Ka relative to CG | 0.082 Ka relative to CG | 3.9 10^6 M-1 | 3.1 10^6 M-1 | – | – | – | – | – | –
2 | Zif_2 (CA) (dsDNA) DNA 1: TCGAGGTCGACGGTATCGCGTGGGCACTCCACTAGTTCTAGAGCGGCCGCCAC DNA 2: GTGGCGGCCGCTCTAGAACTAGTGGAGTGCCCACGCGATACCGTCGACCTCGA | – | – | – | – | 1.16 Ka relative to CG | 0.36 Ka relative to CG | 1.5 Ka relative to CG | 0.49 Ka relative to CG | 1.21 Ka relative to CG | 0.27 Ka relative to CG | 3.5 10^6 M-1 | 1.4 10^6 M-1 | 2.8 10^6 M-1 | 30 10^6 M-1 | 4.5 10^6 M-1 | 109 10^6 M-1 | – | –
3 | Zif_5 (AA) (dsDNA) DNA 1: TCGAGGTCGACGGTATCGCGTGGGAACTCCACTAGTTCTAGAGCGGCCGCCAC DNA 2: GTGGCGGCCGCTCTAGAACTAGTGGAGTTCCCACGCGATACCGTCGACCTCGA | – | – | – | – | 2.25 Ka relative to CG | 0.68 Ka relative to CG | 1.36 Ka relative to CG | 2.47 Ka relative to CG | 4.02 Ka relative to CG | 0.064 Ka relative to CG | 18 10^6 M-1 | 4.8 10^6 M-1 | 3.7 10^6 M-1 | 56 10^6 M-1 | 4 10^6 M-1 | 26 10^6 M-1 | – | –
4 | Zif_1 (CG) (dsDNA) DNA 1: TCGAGGTCGACGGTATCGCGTGGGCGCTCCACTAGTTCTAGAGCGGCCGCCAC DNA 2: GTGGCGGCCGCTCTAGAACTAGTGGAGCGCCCACGCGATACCGTCGACCTCGA | – | – | – | – | – | – | – | – | – | – | 7.4 10^6 M-1 | 1.2 10^6 M-1 | 2.5 10^6 M-1 | 81 10^6 M-1 | 3 10^6 M-1 | 406 10^6 M-1 | – | –
5 | Zif_6 (AC) (dsDNA) DNA 1: TCGAGGTCGACGGTATCGCGTGGGACCTCCACTAGTTCTAGAGCGGCCGCCAC DNA 2: GTGGCGGCCGCTCTAGAACTAGTGGAGGTCCCACGCGATACCGTCGACCTCGA | – | – | – | – | 3.08 Ka relative to CG | 0.94 Ka relative to CG | 1.93 Ka relative to CG | 2.78 Ka relative to CG | 11.8 Ka relative to CG | 0.041 Ka relative to CG | 21 10^6 M-1 | 14 10^6 M-1 | 5.5 10^6 M-1 | 77 10^6 M-1 | 5.7 10^6 M-1 | 16 10^6 M-1 | – | –
6 | Zif_4 (AG) (dsDNA) DNA 1: TCGAGGTCGACGGTATCGCGTGGGAGCTCCACTAGTTCTAGAGCGGCCGCCAC DNA 2: GTGGCGGCCGCTCTAGAACTAGTGGAGCTCCCACGCGATACCGTCGACCTCGA | – | – | – | – | 1.48 Ka relative to CG | 1.29 Ka relative to CG | 1.3 Ka relative to CG | 4.45 Ka relative to CG | 14.5 Ka relative to CG | 0.15 Ka relative to CG | – | – | 3.6 10^6 M-1 | 105 10^6 M-1 | 3.9 10^6 M-1 | 63 10^6 M-1 | 33 10^6 M-1 | 17 10^6 M-1
